Assays:
[1] = tested on: PCSK9-mCherry internalization; assay: PCSK9-mCherry internalization in LDLR-EGFP transfected HepG2 cells, confocal microscopy; format: cell-based, human; conditions: 10 nM recombinant protein, HepG2, overnight, versus control
Description: (§1) FIG. 5: SEQ ID NO. 67 blocks PCSK9 internalization and LDLR degradation. Recombinant SEQ ID NO. 67 was added to conditioned media obtained from HEK293 transfected with PCSK9-mCherry or in DMEM together with recombinant human PCSK9, rotated 4 h at 4° C. and added overnight on HepG2 cells as indicated. (a) Following 24 h post-transfection with LDLR-EGFP cDNA (SEQ. ID. NO. 69), HepG2 cells were incubated with PCSK9-mCherry without (−) or with 10 nM SEQ ID NO. 67. Fluorescent proteins were visualized in fixed cells by confocal microscopy. (b) Cells were incubated without or with 25 nM PCSK9 alone or with 0, 10, 25 or 100 nM SEQ ID NO. 67. Total LDLR, SEQ ID NO. 67, PCSK9 and β-actin protein levels were analyzed by immunoblotting in cell lysates and conditioned media as indicated. Data are representative of at least three independent experiments.
Huh-7 cells were washed three times with PBS, fixed with Bouin's solution (0.9% picric acid, 9% paraformaldehyde, 5% acetic acid/PBS) for 15 min. Following extensive PBS washes, cells were permeabilized with 0.1% Triton X-100/PBS for 10 min and incubated with 150 mM glycine to stabilize the aldehydes. […]

[2] = tested on: PCSK9-induced LDLR degradation; assay: PCSK9-induced LDLR degradation in HepG2 cells, extracellular addition, immunoblot; format: cell-based, human
Description: as §1
FIG. 7: SEQ ID NO. 6 prevents PCSK9-induced LDLR degradation. (a) Left; Coomassie staining of purified recombinant SEQ ID NO. 6 and PCSK9 separated by SDS-PAGE is shown. Right; HepG2 cells were incubated in DMEM without or with 0, 25, 100 or 250 nM SEQ ID NO. 6 alone or in presence of recombinant PCSK9. (b) HepG2 cells were transfected without (−) or with PCSK9-V5 in absence (−) or presence SEQ ID NO. 66 or SEQ ID NO. 46. Total LDLR, PCSK9, SEQ ID NO. 66, SEQ ID NO. 46 and β-actin protein levels were analyzed by immunoblotting in cell lysates and conditioned media as indicated. Data are representative of at least three independent experiments.
For Western blot analyses, SDS-polyacrylamide gels were blotted on nitrocellulose membranes (Cat. #162-0115, Bio-Rad), and blocked for 1 h in Tris-Buffered Saline-Tween 20 (TBS-T; 50 mM Tris-HCl, pH 7.5, 150 mM NaCl, 0.1% Tween 20) containing 5% non-fat dry milk. Membranes were then incubated overnight in TBS-T supplemented with 1% non-fat milk and indicated antibodies: rabbit anti-PCSK9 (1:2500, custom made, GenScript), goat anti-human or anti-mouse LDLR (1:1000; Cat. #AF2148 or #A2255, R&D Systems), rat anti-Grp94 (1:30,000), rabbit anti-GRP78 (1:2500; Cat. #ab21685, Abcam), rabbit anti-GFP (1:2000; Cat. #A11122, Life Sciences), mouse anti-V5-tag (1:5000; Cat. #A00641, GenScript), mouse anti-HA-tag (1:5000), rabbit anti-β-actin (1:5000; Cat. #A2066, Sigma-Aldrich). Appropriate HRP-conjugated secondary antibodies (1:10,000, GE healthcare) were used for detection using the Western Lightning Ultra chemiluminescence kit (Cat. #NE1112001EA, PerkinElmer) and BioFlex EC Films (Cat. #CLEC810, InterScience).
To validate this hypothesis, we therefore first tested the effect of extracellular SEQ ID. NO. […]
We next tested whether SEQ ID. […] (Poirier et al., 2009) As PCSK9 was also shown to induce LDLR degradation via an intracellular pathway, (Poirier et al., 2009) we evaluated to ability of SEQ ID. […]

[3] = target: T1, PCSK9 binding to LDLR (Homo sapiens, UniProt Q8NBP7); assay: In vitro PCSK9-LDLR competitive pull-down (immunoprecipitation with mAb-V5); conditions: 1 μg PCSK9, 1 μg LDLR, preincubation 4 h
T1 construct: made in house; host or cells: HEK293T
T1 sequence (Q8NBP7 153-692): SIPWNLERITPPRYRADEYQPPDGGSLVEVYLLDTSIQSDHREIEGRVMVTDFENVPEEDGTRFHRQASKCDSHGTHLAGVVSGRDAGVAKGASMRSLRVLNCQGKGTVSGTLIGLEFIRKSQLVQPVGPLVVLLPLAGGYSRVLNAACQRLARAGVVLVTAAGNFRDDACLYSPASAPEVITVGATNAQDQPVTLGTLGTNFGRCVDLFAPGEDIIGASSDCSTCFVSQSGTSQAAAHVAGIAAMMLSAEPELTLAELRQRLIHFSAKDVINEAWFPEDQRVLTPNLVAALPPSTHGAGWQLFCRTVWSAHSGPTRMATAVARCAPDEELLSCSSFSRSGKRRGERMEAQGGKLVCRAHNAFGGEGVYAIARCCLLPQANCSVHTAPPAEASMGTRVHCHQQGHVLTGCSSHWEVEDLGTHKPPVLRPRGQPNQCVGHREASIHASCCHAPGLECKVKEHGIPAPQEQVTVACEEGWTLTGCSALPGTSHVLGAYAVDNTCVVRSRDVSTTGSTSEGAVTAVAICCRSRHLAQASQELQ
T1 sequence (Q8NBP7 31-152 partner limits assumed): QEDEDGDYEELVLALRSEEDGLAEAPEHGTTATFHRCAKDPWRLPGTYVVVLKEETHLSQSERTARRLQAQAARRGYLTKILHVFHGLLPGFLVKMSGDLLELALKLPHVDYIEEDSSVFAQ
Description: FIG. 6: SEQ ID NO. 6 reduces PCSK9 binding to LDLR in vitro. Left; Coomassie staining of His6 tag purified recombinant SEQ ID NO. 6 and PCSK9 produced as described in Material and Methods. Right; PCSK9-V5-His6 (1 μg) was incubated without (−) or with (+) recombinant SEQ ID NO. 6 (2 μg) in 500 μl of immune-precipitation (IP) buffer (PBS, 1 mM CaCl2, 1% Tween-20 and protease inhibitors) for 4 h at 4° C. on a rotator. Following incubation, 1 μg of recombinant human LDLR ectodomain was added together with 50 μl of A/G-agarose beads and 1 μg of mAb-V5 antibody and incubated with rotation overnight. Samples were then centrifuged at 3,000×g for 5 min and pellets washed three times with 1 ml IP buffer and rotated for 10 min 4° C. and resuspended in 2× Laemmli loading buffer. Samples were separated by SDS-PAGE and immune-blotted as indicated. Data are representative of two independent experiments.
NO. […] NO. 3 might be due to direct competition for PCSK9 binding to the LDLR. To test this hypothesis, we subcloned the SEQ ID. NO. 6 into the pET-24 bacterial expressing vector of which recombinant protein were retrieved from E. coli and purified by metal affinity and size exclusion chromatography. The homogeneity of purified SEQ ID. NO. 6(^˜20 kDa) and recombinant PCSK9 purified from conditioned media of HEK293 transfected cells were assessed by SDS-PAGE and coomassie staining (FIG. 6; left panels). […]

Molecule | PCSK9-mCherry internalization in LDLR-EGFP expressing cells [1] | Effect on PCSK9-induced LDLR degradation ([2]; HepG2, overnight, 25 nM PCSK9, 0, 10, 25 or 100 nM protein) | LDLR pull-down with PCSK9 [3] | Block of exogenously added PCSK9 ([2]; 250 nM, HepG2, exogenous PCSK9 ~6-fold endogenous levels) | Concentration at which maximum effect on total LDLR protein levels was saturated ([2]; HepG2, overnight) | Total LDLR protein levels ([2]; HepG2, overnight, extracellular addition, endogenously secreted PCSK9)
SEQ ID. NO. 67: full-length recombinant GRP94 obtained from Enzo Life Sciences (Cat. #ADI-SPP-766) | significantly reduced | reverted in a dose-dependent manner |  |  |  | 
SEQ ID. NO. 6: GRP94 CDB-CT domain, 148 aa, recombinant ~20 kDa protein purified from E. coli (protein) YGWSGNMERIMKAQAYQTGKDISTNYYASQKKTFEINPRHPLIRDMLRRIKEDEDDKTVLDLAVVLFETATLRSGYLLPDTKAYGDRIERMLRLSLNIDPDAKVEEEPEEEPEETAEDTTEDTEQDEDEEMDVGTDEEEETAKESTAE |  |  | partially inhibited | not sufficient | ≤ 25 nM | significantly increases

From patent US11529390B2, “PCSK9 inhibitory polypolypeptides and methods of use” (INSTITUT DE CARDIOLOGIE DE MONTREAL, priority 2015, dated 2022)
